According to paper PMC5748159:
Where two headings read alike, the source gives them in different places. Values belong to the substance of their own block, whether it stands above or below them.

Tests used:
Experiment in all cases: SEC
[1] = biological target: Human S100A7 (psoriasin), oxidized, with Cys47–Cys96 disulfide bond (human) (UniProt P31151)
[2] = biological target: Human S100A7 (psoriasin), reduced, with Cys47 and Cys96 as free thiols (human) (UniProt P31151)
[3] = biological target: S100A7(C47A)(C96A) homodimer (human) (UniProt P31151)
[4] = biological target: S100A7(C47A)(C96A) homodimer (human) (UniProt P31151); remark: listed apart in the source
[5] = biological target: S100A7(C47S)(C96S) homodimer (human) (UniProt P31151)
[6] = biological target: S100A7(C47S)(C96S) homodimer (human) (UniProt P31151); remark: listed apart in the source

stoichiometry N [1]: 2
Substance: Human S100A7 (psoriasin), oxidized, with Cys47–Cys96 disulfide bond (from UniProt P31151 1-101) (natural protein)

stoichiometry N [2]: 2
Substance: Human S100A7 (psoriasin), reduced, with Cys47 and Cys96 as free thiols (from UniProt P31151 1-101) (natural protein)

stoichiometry N [3]: 2 | stoichiometry N [4]: 2
Substance: S100A7(C47A)(C96A) homodimer (from UniProt P31151 1-101) (natural protein)

stoichiometry N [5]: 2 | stoichiometry N [6]: 2
Substance: S100A7(C47S)(C96S) homodimer (from UniProt P31151 1-101) (natural protein)
